Assay [1] deals with T1, calmodulin (CaM), light chain of myosin VI (UniProt P0DP23 1-149).
T1 construct: calmodulin, the light chain of myosin VI; Two copies stand in the structure: CaM1 on Insert2 (with four Ca2+ ions) and CaM2 on the IQ motif; also called CaM1; CaM2; source: HEK293-F, co-transfected with myosin VI, co-purified
The assay is described as follows: cryo-EM structure; single-particle cryo-EM of myosin VI/CaM in PB, TB + AMPPNP and PB + ATP, the three datasets combined; autoinhibited state, 3.54 Å (4.14 Å map with the SAH-E). The note with it: both partners purified.

For assay [2], the target named is T2, myosin VI motor domain (MD), aa 1-789 (human, UniProt Q9UM54-1 1-789).
T2 construct: myosin VI, human, motor domain aa 1-789; The methods say that myosin VI or its mutants were co-transfected with CaM; also called the MD; source: HEK293-F (pCAG vector), purified
The assay is described as follows: SEC; analytical SEC at 16 °C in PB (20 mM Na2HPO4/NaH2PO4 pH 7.4, 60 mM NaCl, 1 mM EGTA, 2 mM DTT, 2 mM MgCl2); 3.0 μM of the MD and CBD1 proteins. The note with it: both partners purified.

B1: human myosin VI heavy chain, full length, containing both the large-insertion (LI) and small-insertion (SI) regions (natural protein)
chain: MEDGKPVWAPHPTDGFQMGNIVDIGPDSLTIEPLNQKGKTFLALINQVFPAEEDSKKDVEDNCSLMYLNEATLLHNIKVRYSKDRIYTYVANILIAVNPYFDIPKIYSSEAIKSYQGKSLGTRPPHVFAIADKAFRDMKVLKMSQSIIVSGESGAGKTENTKFVLRYLTESYGTGQDIDDRIVEANPLLEAFGNAKTVRNNNSSRFGKFVEIHFNEKSSVVGGFVSHYLLEKSRICVQGKEERNYHIFYRLCAGASEDIREKLHLSSPDNFRYLNRGCTRYFANKETDKQILQNRKSPEYLKAGSMKDPLLDDHGDFIRMCTAMKKIGLDDEEKLDLFRVVAGVLHLGNIDFEEAGSTSGGCNLKNKSAQSLEYCAELLGLDQDDLRVSLTTRVMLTTAGGTKGTVIKVPLKVEQANNARDALAKTVYSHLFDHVVNRVNQCFPFETSSYFIGVLDIAGFEYFEHNSFEQFCINYCNEKLQQFFNERILKEEQELYQKEGLGVNEVHYVDNQDCIDLIEAKLVGILDILDEENRLPQPSDQHFTSAVHQKHKDHFRLTIPRKSKLAVHRNIRDDEGFIIRHFAGAVCYETTQFVEKNNDALHMSLESLICESRDKFIRELFESSTNNNKDTKQKAGKLSFISVGNKFKTQLNLLLDKLRSTGASFIRCIKPNLKMTSHHFEGAQILSQLQCSGMVSVLDLMQGGYPSRASFHELYNMYKKYMPDKLARLDPRLFCKALFKALGLNENDYKFGLTKVFFRPGKFAEFDQIMKSDPDHLAELVKRVNHWLTCSRWKKVQWCSLSVIKLKNKIKYRAEACIKMQKTIRMWLCKRRHKPRIDGLVKVGTLKKRLDKFNEVVSVLKDGKPEMNKQIKNLEISIDTLMAKIKSTMMTQEQIQKEYDALVKSSEELLSALQKKKQQEEEAERLRRIQEEMEKERKRREEDEKRRRKEEEERRMKLEMEAKRKQEEEERKKREDDEKRIQAEVEAQLARQKEEESQQQAVLEQERRDRELALRIAQSEAELISDEAQADLALRRNDGTRPKMTPEQMAKEMSEFLSRGPAVLATKAAAGTKKYDLSKWKYAELRDTINTSCDIELLAACREEFHRRLKVYHAWKSKNKKRNTETEQRAPKSVTDYDFAPFLNNSPQQNPAAQIPARQREIEMNRQQRFFRIPFIRPADQYKDPQSKKKGWWYAHFDGPWIARQMELHPDKPPILLVAGKDDMEMCELNLEETGLTRKRGAEILPRQFEEIWERCGGIQYLQNAIESRQARPTYATAMLQSLLK
notes: myosin VI, human, full length with both the alternatively spliced LI and SI regions; codon-optimised synthetic gene; also called the heavy chain; source: HEK293-F, co-transfected with CaM, purified (Flag resin, size exclusion)
Turning to B1, the binding result in assay [1] is on record as “binds”.

B2: myosin VI cargo-binding domain 1 (CBD1), aa 1072-1158 (domain or fragment, human, UniProt Q9UM54-1 1072-1158, looked up)
chain: TKKYDLSKWKYAELRDTINTSCDIELLAACREEFHRRLKVYHAWKSKNKKRNTETEQRAPKSVTDYDFAPFLNNSPQQNPAAQIPAR
notes: myosin VI, human, CBD1 aa 1072-1158, numbers of the form with LI and SI; also called the CBD1; source: E. coli BL21(DE3), purified (Ni-NTA, size exclusion)
Consider B2, for which the binding result in assay [2] is on record as “binds”.

Source of the values: paper PMC10853514, “Autoinhibition and activation of myosin VI revealed by its cryo-EM structure” (Nature Communications, 2024).
